This assay concerns the target HLA-A*02:01 (Homo sapiens, UniProt P04439, D140Y/D185E/D98H/E176V/E277Q/G131W/G231S/I119V/I121R/I166T/I218V/L300P/L318F/N151K/N90K/P208A/P217A/Q86G/Q94H/R138H/R169H/T345S). As to the kind of experiment: MHC binding assay (UV-ligand exchange, β2m ELISA, peptide exchange yield). To be noted: binding of HLA-class I restricted peptides to HLA-A*02:01, UV-ligand exchange. Summed up:
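Yield of stabilized complexes quantified via the β2m light chain in an ELISA (streptavidin capture, 100-fold diluted monomers, HRP anti-β2m 2 ug/ml at 37 °C, TMB, A450). The complexes come from UV-triggered replacement of a photocleavable ligand by the candidate peptide.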
Background: ELISA stands for enzyme-linked immunosorbent assay.
Turning to “69 (FQLDPSSGVLVTV; listed as Homo sapiens) [compound 69]”, the “Peptide exchange (MHC class I binding score, peptide exchange yield)” value (from here on “Peptide exchange”) was ““+++” (≥50 = +++)”.

“313 (VLFDDELLMV; listed as Homo sapiens) [compound 313]”: the “Peptide exchange” value is ““+++” (≥50 = +++)”.

Take “164 (ALLPQPKNLTV; listed as Homo sapiens) [compound 164]”: the “Peptide exchange” value is given as ““+++” (≥50 = +++)”.

Turning to “174 (ALAQYLITA; listed as Homo sapiens) [compound 174]”, the “Peptide exchange” value is given as ““+++” (≥50 = +++)”.

In the case of “267 (ALQDFLLSV; listed as Homo sapiens) [compound 267]”, the “Peptide exchange” value is on record as ““+++” (≥50 = +++)”.

In the case of “527 (FLLEPGNLEV; listed as Homo sapiens) [compound 527]”, the “Peptide exchange” value is ““++++” (≥75% = ++++)”.

Regarding “130 (FLWNGEDSALL; listed as Homo sapiens) [compound 130]”, the “Peptide exchange” value was ““+++” (≥50 = +++)”.

As to “356 (KLLGKLPEL; listed as Homo sapiens) [compound 356]”, the “Peptide exchange” value was ““+++” (≥50 = +++)”.

On to “229 (RLPGPLGTV; listed as Homo sapiens) [compound 229]”, for which the “Peptide exchange” value was ““++” (≥20% = ++)”.

As for “263 (LLVSNLDFGV; listed as Homo sapiens) [compound 263]”, the “Peptide exchange” value was ““+++” (≥50 = +++)”.

Turning to “472 (KLLEVSDDPQV; listed as Homo sapiens) [compound 472]”, the “Peptide exchange” value is on record as ““+++” (≥50 = +++)”.

Regarding “131 (FVPPVTVFPSL; listed as Homo sapiens) [compound 131]”, the “Peptide exchange” value is ““++” (≥20% = ++)”.

Turning to “359 (YLLPESVDL; listed as Homo sapiens) [compound 359]”, the “Peptide exchange” value is recorded as ““+++” (≥50 = +++)”.

Turning to “235 (YLNDLHEVLL; listed as Homo sapiens) [compound 235]”, the “Peptide exchange” value was ““++++” (≥75% = ++++)”.

Consider “491 (GLNDRSDAV; listed as Homo sapiens) [compound 491]”, for which the “Peptide exchange” value was ““++” (≥20% = ++)”.

Regarding “339 (GLWEIENNPTVKA; listed as Homo sapiens) [compound 339]”, the “Peptide exchange” value is given as ““++++” (≥75% = ++++)”.

“375 (SLTETIEGV; listed as Homo sapiens) [compound 375]”: the “Peptide exchange” value is recorded as ““++” (≥20% = ++)”.

Regarding “467 (FLAKDFNFL; listed as Homo sapiens) [compound 467]”, the “Peptide exchange” value was ““+++” (≥50 = +++)”.

In the case of “512 (SLSEIVPCL; listed as Homo sapiens) [compound 512]”, the “Peptide exchange” value was ““+++” (≥50 = +++)”.

Consider “363 (KVLDVSDLESV; listed as Homo sapiens) [compound 363]”, for which the “Peptide exchange” value is ““++” (≥20% = ++)”.

Take “280 (VLPDPEVLEAV; listed as Homo sapiens) [compound 280]”: the “Peptide exchange” value is listed as ““+++” (≥50 = +++)”.

Turning to “316 (ILLERLWYV; listed as Homo sapiens) [compound 316]”, the “Peptide exchange” value is ““+++” (≥50 = +++)”.

For the substance “22 (IMEENPGIFAV; listed as Homo sapiens) [compound 22]”, the “Peptide exchange” value was ““+++” (≥50 = +++)”.

Take “175 (YLFENISQL; listed as Homo sapiens) [compound 175]”: the “Peptide exchange” value is given as ““+++” (≥50 = +++)”.

On to “215 (QLINHLHAV; listed as Homo sapiens) [compound 215]”, for which the “Peptide exchange” value is ““+++” (≥50 = +++)”.

For “528 (SVAEGRALMSV; listed as Homo sapiens) [compound 528]”, the “Peptide exchange” value is listed as ““+++” (≥50 = +++)”.

Turning to “382 (ALQNYIKEA; listed as Homo sapiens) [compound 382]”, the “Peptide exchange” value is on record as ““++” (≥20% = ++)”.

Regarding “142 (FLFATPVFI; listed as Homo sapiens) [compound 142]”, the “Peptide exchange” value is ““+++” (≥50 = +++)”.

As for “121 (GVVDPRAISVL; listed as Homo sapiens) [compound 121]”, the “Peptide exchange” value is ““++” (≥20% = ++)”.

Regarding “98 (LIIDQADIYL; listed as Homo sapiens) [compound 98]”, the “Peptide exchange” value is listed as ““+++” (≥50 = +++)”.

With “265 (LLFGGTKTV; listed as Homo sapiens) [compound 265]”, the “Peptide exchange” value is ““++” (≥20% = ++)”.

On to “607 (RLYSGISGLEL; listed as Homo sapiens) [compound 607]”, for which the “Peptide exchange” value is ““+++” (≥50 = +++)”.

With “89 (YILPTETIYV; listed as Homo sapiens) [compound 89]”, the “Peptide exchange” value is reported as ““++++” (≥75% = ++++)”.

As for “593 (GLPRFGIEMV; listed as Homo sapiens) [compound 593]”, the “Peptide exchange” value was ““+++” (≥50 = +++)”.

On to “446 (QLIPALAKV; listed as Homo sapiens) [compound 446]”, for which the “Peptide exchange” value was ““+++” (≥50 = +++)”.

As for “234 (ALMEDTGRQML; listed as Homo sapiens) [compound 234]”, the “Peptide exchange” value is listed as ““++” (≥20% = ++)”.

As to “128 (YLFDDPLSAV; listed as Homo sapiens) [compound 128]”, the “Peptide exchange” value is ““++” (≥20% = ++)”.

As to “490 (FLLQHVQEL; listed as Homo sapiens) [compound 490]”, the “Peptide exchange” value is listed as ““+++” (≥50 = +++)”.

As to “193 (QLLDADGFLNV; listed as Homo sapiens) [compound 193]”, the “Peptide exchange” value is on record as ““+++” (≥50 = +++)”.

“141 (YLDFSNNRL; listed as Homo sapiens) [compound 141]”: the “Peptide exchange” value is listed as ““++” (≥20% = ++)”.

In the case of “605 (KLYEAVPQL; listed as Homo sapiens) [compound 605]”, the “Peptide exchange” value is ““+++” (≥50 = +++)”.

“225 (SLLKVLPAL; listed as Homo sapiens) [compound 225]”: the “Peptide exchange” value was ““+++” (≥50 = +++)”.

On to “350 (ALLDVTHSELTV; listed as Homo sapiens) [compound 350]”, for which the “Peptide exchange” value is reported as ““+++” (≥50 = +++)”.

As for “12 (SLWPDPMEV; listed as Homo sapiens) [compound 12]”, the “Peptide exchange” value is listed as ““+++” (≥50 = +++)”.

Regarding “54 (SLLEQGKEPWMV; listed as Homo sapiens) [compound 54]”, the “Peptide exchange” value is listed as ““+++” (≥50 = +++)”.

In the case of “237 (ALLEASGTLLL; listed as Homo sapiens) [compound 237]”, the “Peptide exchange” value is given as ““++++” (≥75% = ++++)”.

Turning to “286 (YLFPGIPEL; listed as Homo sapiens) [compound 286]”, the “Peptide exchange” value is ““+++” (≥50 = +++)”.

Take “561 (YLQLTQSEL; listed as Homo sapiens) [compound 561]”: the “Peptide exchange” value is on record as ““+++” (≥50 = +++)”.

Regarding “367 (SLQNHNHQL; listed as Homo sapiens) [compound 367]”, the “Peptide exchange” value is reported as ““+++” (≥50 = +++)”.

Consider “330 (QLALKVEGV; listed as Homo sapiens) [compound 330]”, for which the “Peptide exchange” value is on record as ““+++” (≥50 = +++)”.

Consider “409 (LLDAMNYHL; listed as Homo sapiens) [compound 409]”, for which the “Peptide exchange” value is ““++” (≥20% = ++)”.

Turning to “240 (ILLEQAFYL; listed as Homo sapiens) [compound 240]”, the “Peptide exchange” value was ““+++” (≥50 = +++)”.

“214 (FLLDLDPLLL; listed as Homo sapiens) [compound 214]”: the “Peptide exchange” value is on record as ““+++” (≥50 = +++)”.

“20 (RMIEYFIDV; listed as Homo sapiens) [compound 20]”: the “Peptide exchange” value is given as ““+++” (≥50 = +++)”.

For the substance “574 (YLLQEPPRTV; listed as Homo sapiens) [compound 574]”, the “Peptide exchange” value is ““++” (≥20% = ++)”.

Consider “586 (KLKPGDLVGV; listed as Homo sapiens) [compound 586]”, for which the “Peptide exchange” value is ““+++” (≥50 = +++)”.

For “90 (TLLQIIETV; listed as Homo sapiens) [compound 90]”, the “Peptide exchange” value was ““+++” (≥50 = +++)”.

Turning to “100 (YLLSTNAQL; listed as Homo sapiens) [compound 100]”, the “Peptide exchange” value is given as ““++++” (≥75% = ++++)”.

With “481 (GLIEDYEALL; listed as Homo sapiens) [compound 481]”, the “Peptide exchange” value was ““+++” (≥50 = +++)”.

For the substance “172 (VLYSYTIITV; listed as Homo sapiens) [compound 172]”, the “Peptide exchange” value was ““++” (≥20% = ++)”.

Turning to “311 (RLYTGMHTV; listed as Homo sapiens) [compound 311]”, the “Peptide exchange” value is ““+++” (≥50 = +++)”.

The values are drawn from US11230581B2, “Peptides and combination of peptides for use in immunotherapy against ovarian cancer and other cancers” (Immatics Biotechnologies GmbH, priority 2015, dated 2022).
